The chains are these.
B1: human IgG1 anti-human CCR4 antibody (KM2160), S298A/E333A/K334A (AAA)/P329R (antibody)
heavy: EVQLVESGGDLMKPGGSLKISCAASGFIFSNYGMSWVRQTPDMRLEWVATISSASTYSYYPDSVKGRFTISRDNAENSLYLQMNSLRSEDTGIYYCGRHSDGNFAFGYWGRGTLVTVSAASTKGPSVFPLAPSSKSTSGGTAALGCLVKDYFPEPVTVSWNSGALTSGVHTFPAVLQSSGLYSLSSVVTVPSSSLGTQTYICNVNHKPSNTKVDKKVEPKSCDKTHTCPPCPAPELLGGPSVFLFPPKPKDTLMISRTPEVTCVVVDVSHEDPEVKFNWYVDGVEVHNAKTKPREEQYNATYRVVSVLTVLHQDWLNGKEYKCKVSNKALRAPIAATISKAKGQPREPQVYTLPPSRDELTKNQVSLTCLVKGFYPSDIAVEWESNGQPENNYKTTPPVLDSDGSFFLYSKLTVDKSRWQQGNVFSCSVMHEALHNHYTQKSLSLSPGK
light: DVLMTQTPLSLPVSLGDQASISCRSSRNIVHINGDTYLEWYLQRPGQSPKLLIYKVSNRFSGVPDRFSGSGSGTDFTLKISRVEAEDLGVYYCFQGSLLPWTFGGGTRLEIRRTVAAPSVFIFPPSDEQLKSGTASVVCLLNNFYPREAKVQWKVDNALQSGNSQESVTEQDSKDSTYSLSSTLTLSKADYEKHKVYACEVTHQGLSSPVTKSFNRGEC
B2: human IgG1 anti-human CCR4 antibody (KM2160), S298A/E333A/K334A (AAA)/A330F (antibody)
heavy: EVQLVESGGDLMKPGGSLKISCAASGFIFSNYGMSWVRQTPDMRLEWVATISSASTYSYYPDSVKGRFTISRDNAENSLYLQMNSLRSEDTGIYYCGRHSDGNFAFGYWGRGTLVTVSAASTKGPSVFPLAPSSKSTSGGTAALGCLVKDYFPEPVTVSWNSGALTSGVHTFPAVLQSSGLYSLSSVVTVPSSSLGTQTYICNVNHKPSNTKVDKKVEPKSCDKTHTCPPCPAPELLGGPSVFLFPPKPKDTLMISRTPEVTCVVVDVSHEDPEVKFNWYVDGVEVHNAKTKPREEQYNATYRVVSVLTVLHQDWLNGKEYKCKVSNKALPFPIAATISKAKGQPREPQVYTLPPSRDELTKNQVSLTCLVKGFYPSDIAVEWESNGQPENNYKTTPPVLDSDGSFFLYSKLTVDKSRWQQGNVFSCSVMHEALHNHYTQKSLSLSPGK
light: DVLMTQTPLSLPVSLGDQASISCRSSRNIVHINGDTYLEWYLQRPGQSPKLLIYKVSNRFSGVPDRFSGSGSGTDFTLKISRVEAEDLGVYYCFQGSLLPWTFGGGTRLEIRRTVAAPSVFIFPPSDEQLKSGTASVVCLLNNFYPREAKVQWKVDNALQSGNSQESVTEQDSKDSTYSLSSTLTLSKADYEKHKVYACEVTHQGLSSPVTKSFNRGEC
B3: human IgG1 anti-human CCR4 antibody (KM2160), S298A/E333A/K334E (antibody)
heavy: EVQLVESGGDLMKPGGSLKISCAASGFIFSNYGMSWVRQTPDMRLEWVATISSASTYSYYPDSVKGRFTISRDNAENSLYLQMNSLRSEDTGIYYCGRHSDGNFAFGYWGRGTLVTVSAASTKGPSVFPLAPSSKSTSGGTAALGCLVKDYFPEPVTVSWNSGALTSGVHTFPAVLQSSGLYSLSSVVTVPSSSLGTQTYICNVNHKPSNTKVDKKVEPKSCDKTHTCPPCPAPELLGGPSVFLFPPKPKDTLMISRTPEVTCVVVDVSHEDPEVKFNWYVDGVEVHNAKTKPREEQYNATYRVVSVLTVLHQDWLNGKEYKCKVSNKALPAPIAETISKAKGQPREPQVYTLPPSRDELTKNQVSLTCLVKGFYPSDIAVEWESNGQPENNYKTTPPVLDSDGSFFLYSKLTVDKSRWQQGNVFSCSVMHEALHNHYTQKSLSLSPGK
light: DVLMTQTPLSLPVSLGDQASISCRSSRNIVHINGDTYLEWYLQRPGQSPKLLIYKVSNRFSGVPDRFSGSGSGTDFTLKISRVEAEDLGVYYCFQGSLLPWTFGGGTRLEIRRTVAAPSVFIFPPSDEQLKSGTASVVCLLNNFYPREAKVQWKVDNALQSGNSQESVTEQDSKDSTYSLSSTLTLSKADYEKHKVYACEVTHQGLSSPVTKSFNRGEC

The target of the test is human CD16a (Val type) stably expressed on NK-92 cells (NK-92/CD16 transfectant) (human, UniProt P08637 17-254). The experiment in a line: cell-based or functional assay.
human CD16a (Val type) stably expressed on NK-92 cells (NK-92/CD16 transfectant), sequence (P08637 17-254 F176V): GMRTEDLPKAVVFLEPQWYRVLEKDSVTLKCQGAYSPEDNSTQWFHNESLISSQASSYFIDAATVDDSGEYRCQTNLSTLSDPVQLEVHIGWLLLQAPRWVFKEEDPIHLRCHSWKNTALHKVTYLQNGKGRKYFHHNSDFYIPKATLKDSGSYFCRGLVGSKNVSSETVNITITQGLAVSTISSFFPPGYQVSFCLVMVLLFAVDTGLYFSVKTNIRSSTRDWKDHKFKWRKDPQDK
For B1, the “relative ADCC activity (AAA = 100)” value is 5 relative, AAA at 0.1 µg/mL = 100. Then B2, with 96 relative, AAA at 0.1 µg/mL = 100; and B3, with 114 relative, AAA at 0.1 µg/mL = 100.
